Reference: article PMC11633110

Key:
[1] = target: T1, SydR' (WT, CC) (Sinorhizobium meliloti Rm2011) (UniProt Q92XY2); test: EMSA; conditions: 10 mM Tris-HCl pH 8, 50 mM KCl, 0.5 mM EDTA, 10% glycerol, 0.5 mM DTT, 10 nM DNA, 25°C 25 min; 8% PAGE in 0.5x TBE
T1 sequence: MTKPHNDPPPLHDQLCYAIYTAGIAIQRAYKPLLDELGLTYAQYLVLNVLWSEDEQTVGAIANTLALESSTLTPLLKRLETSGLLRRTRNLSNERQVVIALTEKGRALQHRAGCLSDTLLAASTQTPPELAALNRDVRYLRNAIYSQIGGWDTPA

[2] = target: His-tagged recombinant SydR (SydR′), wild type (Sinorhizobium meliloti); test: cross-linking; intersubunit disulfide bond assay: proteins reduced in 100 mM DTT for 2 h, desalted, oxidised with 100 mM NaOCl for 30 min, 100 mM N-ethylmaleimide for 2 h at room temperature, 10% non-reducing SDS-PAGE; shows covalent (disulfide) dimers only
[3] = target: SydRC16S (SC) (Sinorhizobium meliloti); test: as above
[4] = target: SydRC114S (CS) (Sinorhizobium meliloti); test: as above

“CCGCCTTCCAGATCAGTACCGGCTTGCTTAGCCAAGCGCTCGGCCAAACGGACTGAGGCCTCCGTTGCGATCCACCCAGGCGACACCCGCACGACCCGGATACCTTTGGACGAAATTTCCTTCGCTATCGACTTGCCG (double strand) [SMa2019 internal fragment, 138 bp]” was tested, and the binding [1] was “no binding”.
“His-tagged recombinant SydR (SydR′), wild type (natural protein)” gave a stoichiometry N [2] of 2.
SydRC16S (SC) (natural protein) showed a stoichiometry N [3] of 2.
Work on SydRC114S (CS) (natural protein) yielded a stoichiometry N [4] of 2.
For “TCTGGGCTCCTTTGCGCACCAATATAATCAAGATTACCGCGAAAACCAATATCGCGATAAGAGATATGTTGACGAGCAGTTCAATATCTGACAACTTAAATATATCGCGATAACAGTTATCGCTATCAACGAAAGGAAAAAGCC (double strand) [sydR-SMa2023 intergenic region, 144 bp]”, the binding [1] was “binds”.
